These results are taken from US20230251254A1, “METHOD FOR EVALUATING INTERACTION BETWEEN IMMOBILIZED SUBSTANCE IMMOBILIZED DIRECTLY OR INDIRECTLY ON SUBSTRATE AND PROXIMITY-DEPENDENT MODIFYING ENZYMELABELED SUBSTANCE TO BE ANALYZED” (CELLFREE SCIENCES CO.,LTD., priority 2020, published 2023).

Test [1] addresses T1, FLAG-GST-fused RelA (UniProt Q04206 1-551).
T1 construct: Immobilized on glutathione magnetic beads on the non-denatured protein array; Order of the parts follows the printed name FLAG-GST; also called FLAG-GST-fused immobilized substance (RelA); not shown: FLAG tag protein; GST protein (glutathione S-transferase tag)
Nature of the test: proximity-biotinylation bead array, streptavidin-HRP luminescence; labeling 26°C 1 h; exposure 3 min; the filing calls the signal on this pair non-specific.

For test [2], the target named is T1, FLAG-GST-fused RelA. Nature of the test: proximity-biotinylation bead array, streptavidin-HRP luminescence; labeling 26°C 30 min; exposure 3 min; the filing calls the signal on this pair non-specific.
The target in test [3] is T1, FLAG-GST-fused RelA. Nature of the test: proximity-biotinylation bead array, streptavidin-HRP luminescence; labeling 26°C 3 h; exposure 3 min; the filing calls the signal on this pair non-specific.
Test [4] deals with T1, FLAG-GST-fused RelA. Nature of the test: proximity-biotinylation bead array, streptavidin-HRP luminescence; labeling 37°C 24 h; exposure 10 min.
In test [5] the target is T2, MDM2 (Mus musculus, UniProt P23804).
T2 construct: made in house; host or cells: wheat cell-free protein synthesis
T2 sequence (P23804 whole entry): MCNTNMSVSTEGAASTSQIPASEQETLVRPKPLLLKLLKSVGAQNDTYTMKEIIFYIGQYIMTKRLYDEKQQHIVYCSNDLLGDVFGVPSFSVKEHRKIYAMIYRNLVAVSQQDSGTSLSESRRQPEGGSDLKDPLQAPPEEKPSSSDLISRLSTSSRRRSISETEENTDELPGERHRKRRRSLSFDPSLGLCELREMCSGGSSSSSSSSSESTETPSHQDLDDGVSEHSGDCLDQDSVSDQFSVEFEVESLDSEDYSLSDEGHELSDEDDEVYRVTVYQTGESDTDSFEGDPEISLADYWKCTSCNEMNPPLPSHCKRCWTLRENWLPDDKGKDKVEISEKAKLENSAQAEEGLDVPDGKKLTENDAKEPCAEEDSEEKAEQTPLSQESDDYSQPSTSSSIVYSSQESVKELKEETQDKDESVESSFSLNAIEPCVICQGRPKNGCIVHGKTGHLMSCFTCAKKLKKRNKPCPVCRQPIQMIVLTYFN
Nature of the test: AirID proximity-dependent biotin labeling on non-denatured protein array, TP53 and MDM2 (Example 2). Type of test: binding. The conditions noted are these: AirID-fused TP53; FLAG-GST-MDM2 on magnetic beads; HRP-labeled streptavidin. An excerpt:
(§1) As a substance to be analyzed, template DNA in which TP53 (SEQ ID NO: 4) or Iκβα (SEQ ID NO: 5) was fused to AirID (SEQ ID NO: 3) was synthesized. As an immobilized substance (target protein), template DNA in which MDM2 (SEQ ID NO: 10), RelA (SEQ ID NO: 11), or any one of 10 kinds of proteins (controls) for comparison was fused to a FLAG™ tag protein and a GST protein was synthesized.
(§2) Thus, a non-denatured protein array was produced.

The target of test [6] is T3, CRBN and IKZF1 (Homo sapiens, UniProt Q96SW2). The following applies: stated as known; cited from earlier work.
T3 sequence (Q96SW2 whole entry): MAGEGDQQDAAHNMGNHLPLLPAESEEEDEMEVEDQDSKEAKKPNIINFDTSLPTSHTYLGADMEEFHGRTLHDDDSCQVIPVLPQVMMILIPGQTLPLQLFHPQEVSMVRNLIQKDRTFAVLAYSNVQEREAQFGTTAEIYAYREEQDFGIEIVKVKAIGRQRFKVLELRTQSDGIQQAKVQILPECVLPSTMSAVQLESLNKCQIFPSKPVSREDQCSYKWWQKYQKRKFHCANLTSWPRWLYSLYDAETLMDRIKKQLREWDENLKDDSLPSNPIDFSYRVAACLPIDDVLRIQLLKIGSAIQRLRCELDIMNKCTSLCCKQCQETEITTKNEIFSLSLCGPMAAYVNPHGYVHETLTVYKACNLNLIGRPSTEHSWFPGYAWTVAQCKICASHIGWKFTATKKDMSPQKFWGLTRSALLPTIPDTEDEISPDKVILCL
T3 sequence (as listed by the source): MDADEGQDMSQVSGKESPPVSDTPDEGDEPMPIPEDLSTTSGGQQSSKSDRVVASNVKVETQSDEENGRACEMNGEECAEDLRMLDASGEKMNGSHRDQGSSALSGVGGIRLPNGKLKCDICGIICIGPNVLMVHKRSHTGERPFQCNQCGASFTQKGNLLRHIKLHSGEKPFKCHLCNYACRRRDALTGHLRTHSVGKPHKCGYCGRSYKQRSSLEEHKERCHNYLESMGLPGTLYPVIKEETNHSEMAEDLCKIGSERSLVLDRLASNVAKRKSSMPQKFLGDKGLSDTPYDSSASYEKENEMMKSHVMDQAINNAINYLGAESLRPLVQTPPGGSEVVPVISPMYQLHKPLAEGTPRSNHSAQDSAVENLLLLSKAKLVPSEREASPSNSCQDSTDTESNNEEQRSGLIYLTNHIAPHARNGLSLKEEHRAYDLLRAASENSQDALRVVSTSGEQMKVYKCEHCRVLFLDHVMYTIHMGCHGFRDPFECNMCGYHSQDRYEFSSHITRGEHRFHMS
In test [7] the target is CRBN and IKZF1 (Homo sapiens, UniProt Q96SW2, W386A/Y384A). The conditions noted are these: mutant CRBN having a mutation in its binding site for the compound. As for the experimental part:
(§3) In this Example, an interaction between proteins known to bind to each other, CRBN (SEQ ID NO: 7) and IKZF1 (SEQ ID NO: 6) or SALL4 (SEQ ID NO: 9), was analyzed. […] In view of this, the compound (thalidomide derivative) was added to a buffer to be used for a reaction to analyze how CRBN interacted with IKZF1 or SALL4 in a compound-dependent (binding recruiter) manner. The flow of this Example is illustrated in FIG. 3.
(§4) As a substance to be analyzed (protein), template DNA in which CRBN was fused to AirID and template DNA in which a mutant CRBN (SEQ ID NO: 8) having a mutation introduced into its binding site for the thalidomide derivative was fused to AirID were synthesized. As an immobilized substance (protein), template DNA was synthesized by fusing IKZF1, SALL4, or Venus (control) for comparison to a FLAG™ tag protein and a GST protein.
(§5) The synthesized template DNAs were used to synthesize AirID-fused substances to be analyzed and FLAG™-GST-fused immobilized substances through use of a wheat cell-free expression system.
(§6) The FLAG™-GST-fused immobilized substance (IKZF1, SALL4, or Venus) was bound to glutathione magnetic beads, followed by purification. The magnetic beads after the purification were dispensed and arranged on the wells of the plate, and immobilized by the magnetic force of the magnet plate.
(§7) The AirID-fused substance to be analyzed (CRBN or mutant CRBN) diluted with a reaction buffer containing biotin and ATP was allowed to react with the FLAG™-GST-fused immobilized substance (IKZF1, SALL4, or Venus) on the magnetic beads to perform biotin labeling of the FLAG™-GST-fused immobilized substance.
(§8) In order to remove the AirID-fused substance to be analyzed that was free in the reaction buffer or adsorbed onto the magnetic beads, the reaction buffer was removed and then washing was performed a plurality of times with a washing buffer.

For test [8], the target named is CRBN and SALL4 (Homo sapiens, UniProt Q96SW2, W386A/Y384A). The conditions noted are these: mutant CRBN having a mutation in its binding site for the compound. As to the method: as §3, §4, §5, §6, §7, §8
CRBN and SALL4 (Homo sapiens, UniProt Q96SW2, W386A/Y384A), sequence (Q96SW2 whole entry Y384A/W386A, the tested form may be a part): as the sequence (Q96SW2 whole entry) above, with Y384A, W386A counted along it
Test [9] has as its target T3, CRBN and IKZF1. The conditions noted are these: compound added to reaction buffer; AirID-fused CRBN. As for the experimental part:
as §3, §4, §5, §6, §7, §8

The target in test [10] is T4, CRBN and SALL4 (Homo sapiens, UniProt Q96SW2). The conditions noted are these: compound added to reaction buffer; AirID-fused CRBN. As to the method: as §3, §4, §5, §6, §7, §8
T4 sequence (as listed by the source): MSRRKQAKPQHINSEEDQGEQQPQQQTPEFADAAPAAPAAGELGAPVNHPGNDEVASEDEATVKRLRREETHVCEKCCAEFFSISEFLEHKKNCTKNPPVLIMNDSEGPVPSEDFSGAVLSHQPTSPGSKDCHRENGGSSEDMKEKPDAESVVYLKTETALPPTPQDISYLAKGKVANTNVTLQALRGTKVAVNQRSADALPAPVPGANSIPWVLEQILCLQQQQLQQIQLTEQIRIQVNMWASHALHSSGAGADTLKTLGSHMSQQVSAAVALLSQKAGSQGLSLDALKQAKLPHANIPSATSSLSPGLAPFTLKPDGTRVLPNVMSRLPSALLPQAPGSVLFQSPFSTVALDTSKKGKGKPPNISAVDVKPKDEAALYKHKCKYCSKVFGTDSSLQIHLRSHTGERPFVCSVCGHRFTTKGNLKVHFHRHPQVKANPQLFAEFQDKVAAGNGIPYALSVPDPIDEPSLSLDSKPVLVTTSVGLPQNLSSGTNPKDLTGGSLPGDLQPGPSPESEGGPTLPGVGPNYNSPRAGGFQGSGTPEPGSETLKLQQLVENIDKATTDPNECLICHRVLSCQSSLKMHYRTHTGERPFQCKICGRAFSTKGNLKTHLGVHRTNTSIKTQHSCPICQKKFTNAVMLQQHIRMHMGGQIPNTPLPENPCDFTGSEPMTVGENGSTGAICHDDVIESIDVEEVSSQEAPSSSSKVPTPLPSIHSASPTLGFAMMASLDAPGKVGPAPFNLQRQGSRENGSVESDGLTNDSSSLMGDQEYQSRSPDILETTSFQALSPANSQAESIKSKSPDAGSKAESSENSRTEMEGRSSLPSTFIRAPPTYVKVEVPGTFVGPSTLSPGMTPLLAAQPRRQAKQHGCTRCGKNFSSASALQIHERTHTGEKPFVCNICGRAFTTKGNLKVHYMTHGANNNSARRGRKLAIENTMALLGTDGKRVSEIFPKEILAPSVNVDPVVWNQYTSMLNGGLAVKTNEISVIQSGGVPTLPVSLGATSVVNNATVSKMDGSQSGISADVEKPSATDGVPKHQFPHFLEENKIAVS
T4 sequence (Q96SW2 whole entry, the tested form may be a part): as the sequence (Q96SW2 whole entry) above
The target of test [11] is T4, CRBN and SALL4. The following applies: stated as known; cited from earlier work.
The target in test [12] is T5, FLAG-GST-fused MDM2 (UniProt P23804 1-489).
T5 construct: Immobilized on glutathione magnetic beads on the non-denatured protein array; Order of the parts follows the printed name FLAG-GST; also called FLAG-GST-fused immobilized substance (MDM2); not shown: FLAG tag protein; GST protein (glutathione S-transferase tag)
T5 sequence (P23804 whole entry, the tested form may be a part): as the sequence (P23804 whole entry) above
Nature of the test: proximity-biotinylation bead array, streptavidin-HRP luminescence; labeling 37°C 24 h; exposure 10 min.

The target in test [13] is T5, FLAG-GST-fused MDM2. Nature of the test: proximity-biotinylation bead array, streptavidin-HRP luminescence; labeling 26°C 1 h; exposure 3 min; the filing calls the signal on this pair non-specific.
In test [14] the target is T5, FLAG-GST-fused MDM2. Nature of the test: proximity-biotinylation bead array, streptavidin-HRP luminescence; labeling 26°C 30 min; exposure 3 min; the filing calls the signal on this pair non-specific.
For test [15], the target named is T5, FLAG-GST-fused MDM2. Nature of the test: proximity-biotinylation bead array, streptavidin-HRP luminescence; labeling 26°C 3 h; exposure 3 min; the filing calls the signal on this pair non-specific.
Test [16] addresses T5, FLAG-GST-fused MDM2. Nature of the test: proximity-biotinylation bead array, streptavidin-HRP luminescence; labeling 26°C 1 h; exposure 10 min.
In test [17] the target is T1, FLAG-GST-fused RelA. Described as above.
Test [18] addresses T6, RelA (Homo sapiens, UniProt Q04206).
T6 construct: made in house; host or cells: wheat cell-free expression system
Nature of the test: AirID proximity-dependent biotin labeling on non-denatured protein array, Iκβα and RelA (Example 2). The conditions noted are these: AirID-fused Iκβα; FLAG-GST-RelA on magnetic beads; HRP-labeled streptavidin. The class given is binding.
Excerpt: as §1, §2

For test [19], the target named is T5, FLAG-GST-fused MDM2. Nature of the test: proximity-biotinylation bead array, streptavidin-HRP luminescence; labeling 26°C 30 min; exposure 10 min.
The target of test [20] is T1, FLAG-GST-fused RelA. The description is as above.
Test [21] addresses T5, FLAG-GST-fused MDM2. Nature of the test: proximity biotinylation by AirID fusion on bead protein array, streptavidin-HRP luminescence image.
Method: The washing buffer was removed, and an HRP-labeled streptavidin solution diluted with the reaction buffer was added and allowed to react with the FLAG™-GST-fused immobilized substance on the magnetic beads. In order to remove free streptavidin, the reaction buffer was removed and then washing was performed a plurality of times with a washing buffer. After the removal of the washing buffer, a chemiluminescence reagent was added and subjected to a reaction. The resultant luminescence was detected with LAS4000 (manufactured by GE Healthcare) to provide measurement images.
Test [22] has as its target T5, FLAG-GST-fused MDM2. Nature of the test: proximity-biotinylation bead array, streptavidin-HRP luminescence; labeling 26°C 3 h; exposure 10 min.
Test [23] has as its target T1, FLAG-GST-fused RelA. Described as above.
Test [24] addresses T5, FLAG-GST-fused MDM2. Nature of the test: proximity-biotinylation bead array, streptavidin-HRP luminescence; labeling 26°C; exposure 10 min.

T1 sequence (Q04206 other isoform, or with tags, fused parts or gaps): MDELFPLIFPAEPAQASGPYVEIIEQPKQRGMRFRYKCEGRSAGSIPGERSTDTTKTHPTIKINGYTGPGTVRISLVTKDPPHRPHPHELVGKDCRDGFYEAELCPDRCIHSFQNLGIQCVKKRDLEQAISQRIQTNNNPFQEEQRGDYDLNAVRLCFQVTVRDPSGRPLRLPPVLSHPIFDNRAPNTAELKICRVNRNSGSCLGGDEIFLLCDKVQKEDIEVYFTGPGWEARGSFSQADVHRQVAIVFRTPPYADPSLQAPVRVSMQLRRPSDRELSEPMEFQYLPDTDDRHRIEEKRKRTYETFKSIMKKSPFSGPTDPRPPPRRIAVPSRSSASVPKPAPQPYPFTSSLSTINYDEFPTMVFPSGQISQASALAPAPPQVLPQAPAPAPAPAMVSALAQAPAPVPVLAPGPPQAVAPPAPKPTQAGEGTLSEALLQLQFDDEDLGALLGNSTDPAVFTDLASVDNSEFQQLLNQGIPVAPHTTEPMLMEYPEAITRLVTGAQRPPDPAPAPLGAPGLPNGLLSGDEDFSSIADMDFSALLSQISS
T6 sequence (Q04206 1-548 isoform Q04206-4): as the sequence (Q04206 other isoform, or with tags, fused parts or gaps) above
CRBN and IKZF1 (Homo sapiens, UniProt Q96SW2, W386A/Y384A), sequence (Q96SW2 whole entry Y384A/W386A): as the sequence (Q96SW2 whole entry) above, with Y384A, W386A counted along it

Consider TurboID-fused TP53, for which the values for the signal value in [1], in test [2] and in test [3] were greater than 65000, 10200 and greater than 65000, respectively.

As for BioID-fused TP53, the signal value in [4] is 1860.

In the case of “TP53: TP53 (SEQ ID NO: 4), fused to AirID as substance to be analyzed in Example 2”, in test [5], the “luminescence (biotin detection) between TP53 and MDM2” value is listed as “recognized”.

`Nc1cccc2c1C(=O)N(C1CCC(=O)NC1=O)C2=O` (stereo not drawn) [Pomalidomide]: in [6], the “effect on binding of CRBN and IKZF1” value was “enhance their binding”. Moreover, in [7], the “luminescence intensity of mutant CRBN and IKZF1” value was “hardly any increase”. Besides, the “luminescence intensity of mutant CRBN and SALL4” value in test [8] is listed as “hardly any increase”. Moreover, the “luminescence intensity of CRBN and IKZF1” value in test [9] is given as “particularly increased”. For the same molecule, the “luminescence intensity of CRBN and SALL4” value in test [10] is on record as “particularly increased”. Also, in test [11], the “effect on binding of CRBN and SALL4” value is “enhance their binding”.

Molecule BioID-fused Iκβα came in with a signal value in [12] of 4530.

In the case of TurboID-fused Iκβα, the values for the signal value in test [13], in test [14] and in [15] were greater than 65000, 7030 and greater than 65000, respectively.

B1: AirID-fused Iκβα (other)
chain: MKDNTVPLTLISILADGEFHSGEQLGEQLGMSRAAINKHIKTLRDWGVDVFRVQGKGYCLPEPIQLLDEEKIRQQLDEGSVTVLPVIDSTNQYLLDRLDELTSGDVCIAEYQQAGRGSRGRKWFSPFGANLYLSMYWRLEQGPAAAMGLSLVIGIVMAETLQKLGADGVRVKWPNDLYLNDRKLAGILVEMTGKTGDAAHIVIGAGINLSMREPETDEVDQSWINLQEAGITIDRNQLAARLIKDLRSALRQFEQQGLAPFLSRWEALDNFINRPVKLIIGDREIHGIARGINEQGALLLEQDGVIKPWIGGEISLRSAMFQAAERPQEWAMEGPRDGLKKERLLDDRHDSGLDSMKDEEYEQMVKELQEIRLEPQEVPRSSEPWKQQLTEDGDSFLHLAIIHEEKALTMEVIRQVKGDLAFLNFQNNLQQTPLHLAVITNQPEIAEALLGAGCDPELRDFRGNTPLHLACEQGCLASVGVLTQSCTTPHLHSILKATNYNGHTCLHLASIHGYLGIVELLVSLGADVNAQEPCNGRTALHLAVDLQNPDLVSLLLKCGADVNRVTYQGYSPYQLTWGRPSTRIQQQLGQLTLENLQMLPESEDEESYDTESEFTEFTEDELPYDDCVFGGQRLTL
notes: Fusion made in a wheat cell-free system; also called AirID-fused substance to be analyzed (Iκβα)
On to B1, for which the signal value in [16] is 690; in [17], 28000; in test [19], 370; in test [20], 7940; in test [22], 520; in test [23] it was 48000. In addition, the “luminescence (biotin detection) between Iκβα and RelA” value in test [18] is on record as “recognized”. Moreover, the binding result in test [21] is listed as “no binding”.

B2: AVVA-R118S,Q141R mutant-fused Iκβα (other)
fusion protein: MSEQWSRKREILALLSSGHFVSGEELATQLGISRTAVSKHIAALEEYGVDIYSVKGKGYKLANPISLIDESKLKSAINNRCFYFDEIPSTNGFMLKHAEELKSGDICVAEYQSAGRGSRGRTWVSPYGCHLYFSLYWRFPRGMAQAMGLSLVVACSLVKVLKSFGVDGVGVKWPNDIYLNHKKLAGVLIEMSGQADSECHLVIGIGINMAMSEQQGKKIDQPWSDLSSLTSMPDKTELLIALQKQLKQDLELFEREGLKAFQPRWQEADLFYGKQIKLLMGENQVEGICRGIDEQGAVLLETDDGIQAFIGGEISLRAAMFQAAERPQEWAMEGPRDGLKKERLLDDRHDSGLDSMKDEEYEQMVKELQEIRLEPQEVPRSSEPWKQQLTEDGDSFLHLAIIHEEKALTMEVIRQVKGDLAFLNFQNNLQQTPLHLAVITNQPEIAEALLGAGCDPELRDFRGNTPLHLACEQGCLASVGVLTQSCTTPHLHSILKATNYNGHTCLHLASIHGYLGIVELLVSLGADVNAQEPCNGRTALHLAVDLQNPDLVSLLLKCGADVNRVTYQGYSPYQLTWGRPSTRIQQQLGQLTLENLQMLPESEDEESYDTESEFTEFTEDELPYDDCVFGGQRLTL
Turning to B2, the signal value in test [16] is 190; in [17] it was 37500; in [19] it was 120; in test [20], 10400; in test [22], 230; in [23], greater than 65000. Further, in [24], the binding result was “no binding”.
